Test results as given in patent US20240209058A1 (published 2024).

T1: human mesothelin (MSLN) peptide on HLA-A*02:01 (human)
T1 peptide: SLLFLLFSL

T2: human mesothelin (MSLN) peptide on HLA-A*02:01 (human)
T2 peptide: VLPLTVAEV


How the values were obtained:
[1] = molecular target: T1, human mesothelin (MSLN) peptide on …; experiment: multimer staining
[2] = molecular target: T2, human mesothelin (MSLN) peptide on …; experiment: multimer staining

Binder | binding result [1] | binding result [2]
MSLN20-28 clone 7 (TCR, V domains shown) Valpha: ILNVEQSPQSLHVQEGDSTNFTCSFPSSNFYALHWYRWETAKSPEALFVMTLNGDEKKKGRISATLNTKEGYSYLYIKGSQPEDSATYLCAFYMDSNYQLIWGAGTKLIIKP Vbeta: NAGVTQTPKFQVLKTGQSMTLQCAQDMNHNSMYWYRQDPGMGLRLIYYSASEGTTDKGEVPNGYNVSRLNKREFSLRLESAAPSQTSVYFCASSEWTAEQYFGPGTRLTVT | recognises | 
MSLN530-538 clone 4 (TCR, V domains shown) Valpha: AQTVTQSQPEMSVQEAETVTLSCTYDTSESDYYLFWYKQPPSRQMILVIRQEAYKQQNATENRFSVNFQKAAKSFSLKISDSQLGDAAMYFCAYLGTGTYKYIFGTGTRLKVLA Vbeta: EAQVTQNPRYLITVTGKKLTVTCSQNMNHEYMSWYRQDPGLGLRQIYYSMNVEVTDKGDVPEGYKVSRKEKRNFPLILESPSPNQTSLYFCASSSGGLGYTFGSGTRLTVV |  | recognises

Continued, values first:

binding result [1] | binding result [2] | Binder
recognises |  | MSLN20-28 clone 2 (TCR, V domains shown) Valpha: DQQVKQNSPSLSVQEGRISILNCDYTNSMFDYFLWYKKYPAEGPTFLISISSIKDKNEDGRFTVFLNKSAKHLSLHIVPSQPGDSAVYFCAASGNTDKLIFGTGTRLQVFP Vbeta: EPEVTQTPSHQVTQMGQEVILRCVPISNHLYFYWYRQILGQKVEFLVSFYNNEISEKSEIFDDQFSVERPDGSNFTLKIRSTKLEDSAMYFCASRPGWSYEQYFGPGTRLTVT
recognises |  | MSLN20-28 clone 8 (TCR, V domains shown) Valpha: AQSVTQLDSQVPVFEEAPVELRCNYSSSVSVYLFWYVQYPNQGLQLLLKYLSGSTLVKGINGFEAEFNKSQTSFHLRKPSVHISDTAEYFCAVIPNNNARLMFGDGTQLVVKP Vbeta: ETGVTQTPRHLVMGMTNKKSLKCEQHLGHNAMYWYKQSAKKPLELMFVYNFKEQTENNSVPSRFSPECPNSSHLFLHLHTLQPEDSALYLCASGQGTEAFFGQGTRLTVV
 | recognises | MSLN530-538 clone 5 (TCR, V domains shown) Valpha: TQLLEQSPQFLSIQEGENLTVYCNSSSVFSSLQWYRQEPGEGPVLLVTVVTGGEVKKLKRLTFQFGDARKDSSLHITAAQTGDTGLYLCAGGMESGGGADGLTFGKGTHLIIQP Vbeta: DTGVSQNPRHKITKRGQNVTFRCDPISEHNRLYWYRQTLGQGPEFLTYFQNEAQLEKSRLLSDRFSAERPKGSFSTLEIQRTEQGDSAMYLCASTSTGGLKNTEAFFGQGTRLTVV
